Data as given in patent US20160051652A1 (INTERNATIONAL INSTITUTE OF CANCER IMMUNOLOGY, published 2016).

B1: eEF2292-300 peptide (peptide)
peptide: LILDPIFKV
notes: Synthesized 9-residue peptide of eEF2; also called candidate peptide number 1
B2: eEF2671-679 peptide (peptide)
peptide: YLNEIKDSV
notes: Synthesized 9-residue peptide of eEF2; also called candidate peptide number 4
B3: eEF2284-292 peptide (peptide)
peptide: KLPRTFCQL
notes: Synthesized 9-residue peptide of eEF2; also called candidate peptide number 7
B4: eEF2394-402 peptide (peptide)
peptide: LMMYISKMV
notes: Synthesized 9-residue peptide of eEF2; also called candidate peptide number 6
B5: eEF2661-669 peptide (peptide)
peptide: ILTDITKGV
notes: Synthesized 9-residue peptide of eEF2; also called candidate peptide number 5
B6: eEF2739-747 peptide (peptide)
peptide: RLMEPIYLV
notes: Synthesized 9-residue peptide of eEF2; also called candidate peptide number 2
B7: eEF2519-527 peptide (peptide)
peptide: KLVEGLKRL
notes: Synthesized 9-residue peptide of eEF2; also called candidate peptide number 3

Target: T1, human HLA-A*0201 molecule (human, UniProt P04439 25-302 at identity 0.94))
T1 construct: whole, on cells; MHC class I molecule on the surface of T2-0201 cells; also called HLA-A0201 class I molecule
T1 MHC heavy: not shown
Assay: binding assay (stabilization assay), T2-0201 cells, flow cytometry
From the text: (§1) Next, a binding ability to an HLA-A0201 molecule was actually analyzed by an MHC stabilization assay.

Row | Binder | % MIF increase [%]
1 | B1 | 269

Target: T1, human HLA-A*0201 molecule
Assay: MHC stabilization assay, T2-0201 cells, flow cytometry of surface HLA-A0201 (non-peptide 275.7)
From the text: as §1

Row | Binder | MFI
2 | B1 | 781
3 | B2 | 523
4 | B3 | 449
5 | B4 | 448
6 | B5 | 828
7 | B6 | 665
8 | B7 | 438

Target: T1, human HLA-A*0201 molecule
Assay: binding assay (stabilization assay), T2-0201 cells, flow cytometry (non-peptide 84.50)
From the text: as §1

Row | Binder | MIF
9 | LLLDPIFKV (Modified-type peptide) [eEF2292-300 2L peptide] | 339
10 | B1 | 312
11 | LLLDPIFKL (Modified-type peptide) [eEF2292-300 2L9L peptide] | 319
12 | LMLDPIFKL (Modified-type peptide) [eEF2292-300 2M9L peptide] | 275
13 | LMLDPIFKV (Modified-type peptide) [eEF2292-300 2M peptide] | 313

Target: T1, human HLA-A*0201 molecule
Assay: MHC stabilization assay, T2-0201 cells, flow cytometry of surface HLA-A0201
From the text: as §1

Row | Binder | % MFI increase [%]
14 | B1 | 183
